Experimental data reported in the supplement of paper PMC10126150.
± gives the standard deviation of the averaged measurements.

The sequences below were run on ATP (assay: switch fluorescence ratio, 500 uM ATP over buffer (Cy3 cluster intensity, sum of 5 cycles each) (fold (ratio)); higher = stronger signal-on switching upon ATP binding; sequences stand for … in TCGTCGGCAGCGTCAGATGTGTATAAGAGACAGTTTTTTTTTTTTTTTTTTTTTTTTT…TC). Conditions: aptamer strand: ATP DNA aptamer (quencher-CACCTGGGGGAGTATTGCGGAGGAAGG + anchor), 100 nM annealed; ATP concentration: 500 uM.
Summary of the method: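 Values give the fluorescence ratio for each switch-domain sequence, averaged from per-cluster ratios of summed target-cycle to summed buffer-cycle Cy3 intensity. The Cy3-labelled switching-strand clusters sat on a modified Illumina MiSeq flow-cell, were annealed to 100 nM quencher-labelled ATP aptamer, and were imaged in selection buffer, then after 15 min with 500 uM ATP at 22 °C. Five cycles ran with NaOH stripping and re-annealing between them, and clusters outside 100-1000 RFU were excluded.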
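Further: ATP exposure 15 min at 22 °C before imaging.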

Sequence | switch fluorescence ratio
CATTTATTAG | 0.964 ± 0.0063
CATTTCAGGA | 1.004 ± 0.0027
CATTTCTAGA | 0.9709 ± 0.0055
CATTTGGGTC | 1.013 ± 0.0038
CATTTGGGTT | 1.03 ± 0.059
CATTTGTATT | 1.01 ± 0.038
CATTTGTTAG | 0.9657 ± 0.0071
CATTTTACTT | 1.02 ± 0.035
CATTTTAGGG | 0.988 ± 0.027
CATTTTGCGC | 1.04 ± 0.042
CATTTTGGTT | 0.995 ± 0.036
CATTTTTACG | 1.01 ± 0.026
CCAAAAGTGG | 1.04 ± 0.044
CCAAAATTG | 1.02 ± 0.018
CCAAATCGGA | 1 ± 0.022
CCAAATGCGA | 1.97 ± 0.068
CCAAATGTCG | 0.982 ± 0.025
CCAACAGGCC | 1.14 ± 0.12
CCAACTTTTT | 0.962 ± 0.014
CCAAGAGGGC | 1.04 ± 0.023
CCAAGTTCGG | 1.02 ± 0.011
CCAATGAGTG | 1.01 ± 0.023
CCAATGCTGT | 1.115 ± 0.0091
CCAATGGAGG | 0.994 ± 0.034
CCAATGGGAA | 1.01 ± 0.025

Sequence | switch fluorescence ratio
CCACAGCCGG | 1.23 ± 0.13
CCACATTGCT | 1.21 ± 0.017
CCACATTGTA | 1.01 ± 0.018
CCACGATTAC | 3.44 ± 1.3
CCACGGGATG | 1.09 ± 0.03
CCACGTCAAC | 1.59 ± 0.052
CCACGTGGGC | 1.07 ± 0.14
CCACTGGTGT | 3.92 ± 0.56
CCACTTACGG | 1.6327 ± 0.00046
CCACTTAGGG | 1.01 ± 0.021
CCACTTGCTA | 1.16 ± 0.037
CCAGAACCGG | 1.01 ± 0.0022
CCAGAAGGGG | 1.52 ± 0.89
CCAGACGGGG | 0.986 ± 0.029
CCAGAGGAGG | 1.01 ± 0.076
CCAGATATGG | 1.01 ± 0.041
CCAGATTGGG | 1.004 ± 0.0052
CCAGCAAGAT | 4.63 ± 0.51
CCAGCAGCGG | 1.12 ± 0.063
CCAGCGAATG | 1.05 ± 0.028
CCAGCGTGGT | 1.1 ± 0.019
CCAGCTGGCT | 1.026 ± 0.0063
CCAGCTTTGC | 1.02 ± 0.057
CCAGGAGGGA | 1.002 ± 0.0041
CCAGGAGGGG | 1.04 ± 0.012

Sequence | switch fluorescence ratio
CCAGGCGATT | 1.07 ± 0.095
CCAGGCTAAT | 1.03 ± 0.014
CCAGGGAGGG | 1.06 ± 0.051
CCAGGGATCA | 1.049 ± 0.0023
CCAGGGCGCG | 1.004 ± 0.002
CCAGGGGTAA | 1.17 ± 0.055
CCAGGGGTCT | 1.22 ± 0.028
CCAGGGGTTT | 2.66 ± 2.4
CCAGGTCTAT | 1.08 ± 0.018
CCAGTATTTT | 0.999 ± 0.015
CCAGTCATCA | 0.9961 ± 0.0014
CCAGTCGGAG | 0.9776 ± 0.0038
CCAGTGACAT | 1.03 ± 0.028
CCAGTGGCTA | 1.016 ± 0.0033
CCAGTGTCGG | 0.969 ± 0.04
CCAGTTACGG | 1.032 ± 0.01
CCAGTTAGCC | 1.04 ± 0.13
CCAGTTTCGG | 0.983 ± 0.049
CCAGTTTGGA | 0.998 ± 0.017
CCATACGTTG | 1.037 ± 0.0051
CCATACGTTT | 1.02 ± 0.046
CCATATCTAT | 1 ± 0.029
CCATCAGGG | 1.16 ± 0.042
CCATCTGCGC | 1.82 ± 0.074
CCATGCAGGC | 1.28 ± 0.13

Sequence | switch fluorescence ratio
CCATGGATCA | 0.9992 ± 0.0091
CCATGGGTAG | 0.974 ± 0.056
CCATGGTAGT | 1.028 ± 0.0029
CCATGGTTAC | 2.67 ± 2.3
CCATGTAAGA | 1.018 ± 0.0091
CCATGTGTTG | 1.03 ± 0.043
CCATGTTGAG | 0.997 ± 0.0086
CCATGTTTGT | 1.01 ± 0.028
CCATTATGGT | 1.01 ± 0.03
CCATTCAGGT | 1.04 ± 0.065
CCATTCATAG | 0.973 ± 0.022
CCATTGAATG | 1.02 ± 0.015
CCATTGATGT | 1.02 ± 0.023
CCATTTGACC | 1.04 ± 0.014
CCATTTGTT | 1.04 ± 0.035
CCATTTTTGG | 0.992 ± 0.011
CCCAATAGTG | 1.35 ± 0.042
CCCACTACAT | 1.06 ± 0.035
CCCAGGCCCG | 1.058 ± 0.0088
CCCATCTTTT | 1 ± 0.0025
CCCATGCAAG | 1.3 ± 0.32
CCCATGCCCG | 1.04 ± 0.021
CCCATGTTTC | 1.02 ± 0.023
CCCCGAGGAT | 1.14 ± 0.022
CCCCTTGTTC | 1.01 ± 0.02
